# Laboratory results as given in the supplement of paper PMC12042874.
# ± gives the uncertainty stated by the source.
# Assay: amyloid nucleation score (Sup35N fusion, yeast selection) (log enrichment); library NNK2; higher = more nucleation; inactive = no reads after selection
# Outline: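 Peptides of 20 random codons, each fused to Sup35N, were expressed in psi-negative yeast. Cells were induced with 100 μM copper sulfate for 24 hours and grown 7 days at 30°C on medium lacking adenine and uracil, and plasmid inserts before and after selection were Illumina-sequenced. Nucleation scores are DiMSum log enrichments of output over input reads, centred on the mode score of non-aggregating sequences, and sequences under 100 input reads were excluded.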
row,Substance,amyloid nucleation score
1,YNSCSYEIILGDFLWLLTGQ,0.624 ± 0.2
2,YNSTALKVSWRVRLGPWNWI,-0.06 ± 1.1
3,YNSVVADKWCSFSK,0.155 ± 1.1
4,YNYPSVNIRLKIDLAGSLGC,2.65 ± 0.097
5,YNYWMQSLGSWVEVLSSVSV,-0.365 ± 0.5
6,YPCVMFFPEPGEYCLVYRC,-0.608 ± 1.1
7,YPNRFINTCFVRCNISLNNY,8.485 ± 0.061
8,YPSCKGSMPVFYSFPGGENA,0.524 ± 0.5
9,YRACCVYNLGEVEWGVWVVC,-0.31 ± 0.21
10,YRARKASLTDVSSSVKVNMS,-0.026 ± 0.63
11,YRFRSLSM,-1.14 ± 0.4
12,YRILVNFAVVSMVRINRSFW,-1.48 ± 0.78
13,YRLYHILECSGVMMS,-1.01 ± 0.44
14,YRPNN,2.43 ± 0.14
15,YRPRDCISRVTYMRTVIVIL,-0.121 ± 1.1
16,YRQMIRDYWIEKQSLHIRAD,0.27 ± 0.56
17,YRRGRLSMRSVWTKGCKERM,inactive
18,YRVFRFCNMASYLVSICHNG,-1.2 ± 0.64
19,YSFAMLGGQESRMSMCCGER,0.791 ± 0.32
20,YSFCWLYNYPFIFYGFAFED,5.951 ± 0.056
21,YSFLHVIGANKFARACNNWS,-0.565 ± 0.78
22,YSFMS,-0.458 ± 0.27

row,Substance,amyloid nucleation score
1,YSFYAKSW,inactive
2,YSGFI,inactive
3,YSGFLRCLAYALI,0.061 ± 0.8
4,YSGTWLMVHKNLMVRKKLVP,0.499 ± 0.38
5,YSLCTTPMRAWVSYVFDVR,-1.04 ± 0.64
6,YSLVRIFDGVWITRDSCNIL,inactive
7,YSLYEYFKSHLRKACVMPGW,inactive
8,YSNRLYFVLEAVVYL,1.41 ± 0.32
9,YSPSRVS,-0.493 ± 0.48
10,YSRVILFHNGQMGVVMVPRW,inactive
11,YSSAGDVMLNRQLDGCWLTR,-0.006 ± 0.53
12,YSSFFHFRVCNLCRWGSVSN,0.121 ± 0.18
13,YSSMGDNSRVRSFFVAVAGG,inactive
14,YSTEPSRHGIWNG,-0.735 ± 0.56
15,YSVFNTSNFSALDPRFRRLF,0.201 ± 0.8
16,YSVYKTLA,-1.51 ± 0.78
17,YSWVGLCPLIGRLYTGFAN,-1.71 ± 0.54
18,YSWWW,1.15 ± 0.66
19,YTAIVRFWWVTQSVQFKNRD,-0.143 ± 0.8
20,YTEQVYVYLGFLSHGASRYL,-0.716 ± 1.1
21,YTISSIVVLDMFS,1.41 ± 0.21
22,YTKSQGAFT,-0.135 ± 0.65

row,Substance,amyloid nucleation score
1,YTLFYARNLSSMDVICN,-1.09 ± 0.76
2,YTNHSLNMHLWCRNS,inactive
3,YTRLYFNEHDFYFFVGIMT,inactive
4,YTRSYGPFPSHLVNLARNLS,-0.905 ± 0.32
5,YTTNIF,-0.793 ± 0.49
6,YTVWEEYHRAKSSGLT,1 ± 0.33
7,YTYSYATLNMWFQLT,6.59 ± 0.033
8,YVATKYMRLNTCNLFWGGLT,6.368 ± 0.05
9,YVATVWPLQSKRLSHRLMNG,0.695 ± 0.43
10,YVCFQFFDTC,8.406 ± 0.038
11,YVCGRENILFFERLKS,-0.327 ± 0.45
12,YVCGWINVLG,-0.661 ± 0.63
13,YVDWVNRTFQWFTGDVDDPV,-0.107 ± 0.39
14,YVGGTVGV,-0.807 ± 0.64
15,YVHVNIRYFYSLGDAVDKMP,4.86 ± 0.11
16,YVLGVF,0.045 ± 0.79
17,YVLPLPGNLNIMEAAGRYYA,4.04 ± 0.057
18,YVMSAVFYSVRFVAIETCKV,0.155 ± 0.57
19,YVNNLGRFCLLYRPWGMVNS,-0.196 ± 1.1
20,YVQVFRSLDYNHHAKS,-0.508 ± 0.39
21,YVRYGP,-0.289 ± 0.26
22,YVSDYG,0.199 ± 0.8

row,Substance,amyloid nucleation score
1,YVSEQTHPMVIMYHFLRQHQ,-0.181 ± 0.5
2,YVSLNQRVNFA,-1.47 ± 0.76
3,YVSSVAIAFGLSVGLAYYPP,5.26 ± 0.059
4,YVYWWTYERMVSWSIYCVNT,2.96 ± 0.097
5,YWKVFFKAGWVVQSSAGMSA,4.64 ± 0.068
6,YWTGGLHNEHLSMHVSVYSN,-0.527 ± 1.1
7,YWVGIDRHFHGRQYCKAGA,1.11 ± 0.45
8,YWYWWSSWY,1.6 ± 0.29
9,YYEYGL,-0.298 ± 0.4
10,YYGQSPALDRR,-0.238 ± 0.45
11,YYIAI,-0.619 ± 1
12,YYINVDQESGSWMRTSVKGA,0.207 ± 0.41
13,YYKFTVCWMYYLYQKSRTLL,-1.15 ± 0.78
14,YYLSNPRGVHISIYREHNMS,6.392 ± 0.043
15,YYLVV,-0.614 ± 0.56
16,YYMKFEAILKDQWSTVYN,inactive
17,YYMLVYWDV,0.56 ± 0.44
18,YYSISGISFWFSK,8.381 ± 0.06
19,YYVDVLESISSGMFLYSQLV,-1.95 ± 0.54
20,YYYVTCSILPLFYFEKGLAL,5.711 ± 0.037
